B1: SVG06 (VHH)
VHH: QVQLQESGGALVQPGGSLRLSCAASGFPFSAYDMTWVRQAPGQGLEWVSTIHKSGGITTYADSVKGRFTISRDNAKNTLYLQMNNLESEDTAVYYCAKALRAHNSDYVGRNALGSWGEGTLVTVSS
B2: SVG19 (VHH, not shown: large carriers)
VHH: QVQLQQSGGGLVQPGGSLRLSCAASGFTFSSYAMSWVRQAPGKGLEWVSAINSGGGSTSYADSVKGRFTISRDNAKNTLYLQMNSLKPEDTAVYYCAKDFDPWGVGTGGYDYWGQGTQVTVSS
B3: SVG13 (VHH)
VHH: QVQLQESGGGLVQPGGSLRLSCEASGFTFDDYGMSWVRQAPGKGLEWVSSLTPNGGSTYYADSVKGRFTISRDNAKNTLYLQMNSLKPEDTALYYCAKNSYYGAMDYWGKGTLVTVSS
B4: SVG24 (VHH, not shown: large carriers)
VHH: QVQLQQSGGGLVQAGGSLRLSCAASGRTFSTYNIAWFRQAPGKEREFVTAITWGSGNTYYADSVKGRFTISRDNAKNTVFLQMNSLKPDDTAVYYCAARRSLGPTMAFAYEYWGQGTQVTVSS
B5: SVG23 (VHH, not shown: large carriers)
VHH: QVQLQESGGGLVQAGGSLRLSCAASGRAFGSYTMNWFRQAPGKERDFVAGIMSSGMNTWYADSVKGRFTISRDNAKNTVYLQMNSLKPEDTAVYYCASRPRSTMTSGRYLYDYWGQGTQVTVSS
B6: SVG07 (VHH, not shown: large carriers)
VHH: QVQLQESGPGLVKPSQTLSLTCTVSGGSITTTAYAWSWIRQPPGKGLEWMGAIRFDGTTDYSPSLKSRISISRDTSNNQFSLRMSSVTPEDTAVYYCARYGVVSDHGGLDYWGQGTQVTVSS
B7: SVG03 (VHH, not shown: large carriers)
VHH: QVQLQESGGGLVQAGGSLRLSCAASGRTFSNYVMGWFRQAPGKEREFVSAISWNGVSTFYADSVKGRFTISRDNAKNTVYLQMNSLKPEDTAVYYCAADERFVVRYNYWGQGTQVTVSS
B8: SVG18 (VHH, not shown: large carriers)
VHH: QVQLQQSGGGLVQPGGSLRLSCAASGFTFSSYAMSWVRQAPGKGLEWVSAINSGGDIISYADSVKGRFTISRDNAKNTLYLQMNSLKPEDTAVYYCAKSPIVRTYGGYDYWGQGTQVTVSS
B9: SVA12 (VHH)
VHH: QVQLQESGGRLVQAEDSLRLSCAASGRTFVSYDMGWFRQAPGKEREFVAAINWRGYTTDYVDSVKGRFFISRDIAKSTVYLQMNNLKPEDTAVYYCAARQMSGSSRYSPPGRVGYDFWGQGTQVTVSS
B10: SVA04 (VHH, not shown: large carriers)
VHH: QVQLQQSGGGLVQAGGSLRLACAASGRTLSSYVMGWFRQAPGKEREFVAAISWSGGSTYYADSVKGRFTISRDNAKNTVYLQMNSLKPEDTAVYYCAATLRGSNRYYSGRVYDYWGQGTQVTVSS

What follows are binders tested against horse IgG (assay: ELISA, coated antigen, E. coli supernatant (no SDA 0.255, 0.261)).

Binder | absorbance at 450 nm [A450]
B1 | 0.325
B2 | 0.681
B3 | 0.436
B4 | 0.765
B5 | 0.26
B6 | 0.401
B7 | 1.1
B8 | 0.478

Each binder was assayed against guinea pig IgG (assay: ELISA, coated antigen, E. coli supernatant).

Binder | absorbance at 450 nm [A450]
B1 | 0.204
B2 | 0.435
B3 | 0.579
B4 | 0.068
B5 | 0.068
B6 | 0.249
B7 | 0.063
B8 | 0.174

What follows are binders tested against dog IgG Fab fragment (assay: ELISA, coated antigen, E. coli supernatant).

Binder | absorbance at 450 nm [A450]
B1 | 0.178
B2 | 1.22
B3 | 0.59
B4 | 0.074
B5 | 0.061
B6 | 0.454
B7 | 0.054
B8 | 1.36

The binders below were run against human IgG (assay: ELISA, coated antigen, E. coli supernatant).

Binder | absorbance at 450 nm [A450]
B1 | 0.365
B2 | 0.309
B3 | 0.524
B4 | 0.084
B5 | 0.073
B6 | 0.17
B7 | 0.076
B8 | 0.096

These binders were tested against horse IgG Fab fragment (assay: ELISA, coated antigen, E. coli supernatant).

Binder | absorbance at 450 nm [A450]
B1 | 0.089
B2 | 0.472
B3 | 0.222
B4 | 0.06
B5 | 0.056
B6 | 0.152
B7 | 0.057
B8 | 0.32

The binders below were run against swine IgG (assay: ELISA, coated antigen, E. coli supernatant).

Binder | absorbance at 450 nm [A450]
B1 | 0.131
B2 | 0.146
B3 | 0.195
B4 | 0.341
B5 | 0.092
B6 | 0.103
B7 | 0.075
B8 | 0.097

Each binder was assayed against dog IgG (assay: ELISA, coated antigen, E. coli supernatant).

Binder | absorbance at 450 nm [A450]
B1 | 0.277
B2 | 1.02
B3 | 0.693
B4 | 1.74
B5 | 1.74
B6 | 0.479
B7 | 0.07
B8 | 1

What follows are binders tested against horse IgG Fc fragment (assay: ELISA, coated antigen, E. coli supernatant).

Binder | absorbance at 450 nm [A450]
B1 | 0.073
B2 | 0.079
B3 | 0.097
B4 | 1.67
B5 | 0.072
B6 | 0.099
B7 | 0.476
B8 | 0.072

These binders were tested against bovine IgG (assay: ELISA, coated antigen, E. coli supernatant).

Binder | absorbance at 450 nm [A450]
B1 | 0.172
B2 | 0.453
B3 | 0.272
B4 | 0.075
B5 | 0.062
B6 | 0.121
B7 | 0.061
B8 | 0.124

What follows are binders tested against human serum albumin (human) (UniProt P02768) (assay: ELISA, coated albumin, E. coli supernatant).

Binder | absorbance at 450 nm [A450]
B9 | 0.057

The binders below were run against dog serum albumin (dog) (UniProt P49822) (assay: ELISA, coated albumin, E. coli supernatant).
dog serum albumin (dog), sequence (P49822 25-608): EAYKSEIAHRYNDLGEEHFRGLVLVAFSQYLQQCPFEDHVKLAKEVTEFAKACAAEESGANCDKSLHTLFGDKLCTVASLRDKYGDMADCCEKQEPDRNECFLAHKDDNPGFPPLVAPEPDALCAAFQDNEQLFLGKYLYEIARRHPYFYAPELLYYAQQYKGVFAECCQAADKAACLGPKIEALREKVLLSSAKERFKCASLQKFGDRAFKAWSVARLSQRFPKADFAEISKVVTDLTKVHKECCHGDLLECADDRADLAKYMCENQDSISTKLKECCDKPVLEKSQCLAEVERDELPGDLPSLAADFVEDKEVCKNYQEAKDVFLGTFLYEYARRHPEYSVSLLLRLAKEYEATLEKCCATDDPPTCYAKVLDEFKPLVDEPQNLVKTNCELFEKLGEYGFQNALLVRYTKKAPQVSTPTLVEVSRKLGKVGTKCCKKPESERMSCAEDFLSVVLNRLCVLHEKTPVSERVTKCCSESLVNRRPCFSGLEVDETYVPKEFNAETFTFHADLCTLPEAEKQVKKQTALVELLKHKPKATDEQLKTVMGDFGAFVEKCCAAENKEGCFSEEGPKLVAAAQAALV

Binder | absorbance at 450 nm [A450]
B10 | 1.53
B9 | 1.77

The binders below were run against horse serum albumin (horse) (UniProt P35747) (assay: ELISA, coated albumin, E. coli supernatant).
horse serum albumin (horse), sequence (P35747 25-607): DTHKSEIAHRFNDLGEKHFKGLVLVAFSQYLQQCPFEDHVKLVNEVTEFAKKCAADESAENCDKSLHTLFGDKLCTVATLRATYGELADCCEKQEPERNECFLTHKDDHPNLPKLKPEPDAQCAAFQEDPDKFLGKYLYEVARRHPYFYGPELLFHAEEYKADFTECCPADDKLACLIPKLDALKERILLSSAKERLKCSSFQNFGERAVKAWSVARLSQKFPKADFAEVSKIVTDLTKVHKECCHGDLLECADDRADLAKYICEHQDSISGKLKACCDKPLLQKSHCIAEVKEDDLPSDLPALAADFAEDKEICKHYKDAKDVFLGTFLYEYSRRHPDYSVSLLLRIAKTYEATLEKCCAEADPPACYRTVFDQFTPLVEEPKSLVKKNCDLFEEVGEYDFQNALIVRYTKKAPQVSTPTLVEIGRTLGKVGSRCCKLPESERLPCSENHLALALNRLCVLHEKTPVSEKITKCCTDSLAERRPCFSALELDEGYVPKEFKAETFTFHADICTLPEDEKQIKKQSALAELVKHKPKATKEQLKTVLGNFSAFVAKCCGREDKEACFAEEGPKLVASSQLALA

Binder | absorbance at 450 nm [A450]
B9 | 2

Reference: patent publication US20240376185A1
